Measurements taken from article PMC4134560.

Biological target: BCL-xLΔC (BCL-xL construct lacking 22 C-terminal residues), Q07817
Sequence (Q07817 1-211, stated change not applied): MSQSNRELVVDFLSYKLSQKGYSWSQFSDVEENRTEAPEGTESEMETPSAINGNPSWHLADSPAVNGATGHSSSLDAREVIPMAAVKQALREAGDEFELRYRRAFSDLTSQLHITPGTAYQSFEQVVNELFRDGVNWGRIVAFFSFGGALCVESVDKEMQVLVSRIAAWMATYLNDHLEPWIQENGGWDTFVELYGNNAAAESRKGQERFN

A Kd of 500 nM was found for STKKLSECLKRIGDELDSNM (modifications not checked) [BAX BH3 domain peptide] in this work.
